Reference: patent US20230357348A1 (AstraZeneca / MedImmune, published 2023)
Starred links: 1 amine or outer side, 2 acyl side, 3 side chain; linkers in the order of their positions; H or OH if unused. Non-standard residues stand in square brackets, D forms with d. Groups on a side chain read outwards from the residue. No end group written: not given here. *: point of attachment. C20 diacid = O=C(O)CCCCCCCCCCCCCCCCCCC(=O)*; C18 diacid = O=C(O)CCCCCCCCCCCCCCCCC(=O)*; γGlu = O=C(O)[C@H](CCC(=O)[*:2])N[*:1]; αMeF = C[C@](N)(Cc1ccccc1)C(=O)O; AEEA = NCCOCCOCC(=O)O; Aib = CC(C)(N)C(=O)O

Legend:
[1] = biological target: human GLP-1 receptor (hGLP-1R) (human, UniProt P43220 24-463); test: cell-based or functional assay
[2] = biological target: human glucagon receptor (hGCGR) (human, UniProt P47871 26-477); test: cell-based or functional assay
Chain of human glucagon receptor (hGCGR) (P47871 26-477): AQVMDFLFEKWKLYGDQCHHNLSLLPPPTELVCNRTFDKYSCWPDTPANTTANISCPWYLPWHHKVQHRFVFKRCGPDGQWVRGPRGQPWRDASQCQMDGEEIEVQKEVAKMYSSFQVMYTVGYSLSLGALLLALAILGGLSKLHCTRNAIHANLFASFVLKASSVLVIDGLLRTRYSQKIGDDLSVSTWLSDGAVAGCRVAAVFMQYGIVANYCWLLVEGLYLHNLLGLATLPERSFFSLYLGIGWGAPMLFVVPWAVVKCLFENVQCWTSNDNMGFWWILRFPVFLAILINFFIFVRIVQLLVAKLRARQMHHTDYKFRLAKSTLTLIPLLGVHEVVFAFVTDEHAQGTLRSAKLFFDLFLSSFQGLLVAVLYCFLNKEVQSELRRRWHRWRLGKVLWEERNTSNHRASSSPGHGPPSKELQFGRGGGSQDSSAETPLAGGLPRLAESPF

Binder	hGLP-1R EC50 (pM) [1]	hGluc-R EC50 (pM) [2]
H[Aib]QGTFTSDVSK[αMeF]LDTK([AEEA-AEEA-γGlu-γGlu-C20 diacid])RAQDFVAWLEA[Aib]G-OH (N-terminus assumed; SMILES CC(C)C[C@H](NC(=O)[C@H](Cc1c[nH]c2ccccc12)NC(=O)[C@H](C)NC(=O)[C@@H](NC(=O)[C@H](Cc1ccccc1)NC(=O)[C@H](CC(=O)O)NC(=O)[C@H](CCC(N)=O)NC(=O)[C@H](C)NC(=O)[C@H](CCCNC(=N)N)NC(=O)[C@H](CCCCNC(=O)COCCOCCNC(=O)COCCOCCNC(=O)CC[C@H](NC(=O)CC[C@H](NC(=O)CCCCCCCCCCCCCCCCCCC(=O)O)C(=O)O)C(=O)O)NC(=O)[C@@H](NC(=O)[C@H](CC(=O)O)NC(=O)[C@H](CC(C)C)NC(=O)[C@](C)(Cc1ccccc1)NC(=O)[C@H](CCCCN)NC(=O)[C@H](CO)NC(=O)[C@@H](NC(=O)[C@H](CC(=O)O)NC(=O)[C@H](CO)NC(=O)[C@@H](NC(=O)[C@H](Cc1ccccc1)NC(=O)[C@@H](NC(=O)CNC(=O)[C@H](CCC(N)=O)NC(=O)C(C)(C)NC(=O)[C@@H](N)Cc1c[nH]cn1)[C@@H](C)O)[C@@H](C)O)C(C)C)[C@@H](C)O)C(C)C)C(=O)N[C@@H](CCC(=O)O)C(=O)N[C@@H](C)C(=O)NC(C)(C)C(=O)NCC(=O)O) [Peptide 418]	88.1 pM	222 pM
H[Aib]QGTFTSDVSK[αMeF]LDRK([AEEA-AEEA-γGlu-C18 diacid])RAQDFVRWLL[Aib]TE-NH2 (N-terminus assumed; SMILES CC(C)C[C@H](NC(=O)[C@H](Cc1c[nH]c2ccccc12)NC(=O)[C@H](CCCNC(=N)N)NC(=O)[C@@H](NC(=O)[C@H](Cc1ccccc1)NC(=O)[C@H](CC(=O)O)NC(=O)[C@H](CCC(N)=O)NC(=O)[C@H](C)NC(=O)[C@H](CCCNC(=N)N)NC(=O)[C@H](CCCCNC(=O)COCCOCCNC(=O)COCCOCCNC(=O)CC[C@H](NC(=O)CCCCCCCCCCCCCCCCC(=O)O)C(=O)O)NC(=O)[C@H](CCCNC(=N)N)NC(=O)[C@H](CC(=O)O)NC(=O)[C@H](CC(C)C)NC(=O)[C@](C)(Cc1ccccc1)NC(=O)[C@H](CCCCN)NC(=O)[C@H](CO)NC(=O)[C@@H](NC(=O)[C@H](CC(=O)O)NC(=O)[C@H](CO)NC(=O)[C@@H](NC(=O)[C@H](Cc1ccccc1)NC(=O)[C@@H](NC(=O)CNC(=O)[C@H](CCC(N)=O)NC(=O)C(C)(C)NC(=O)[C@@H](N)Cc1c[nH]cn1)[C@@H](C)O)[C@@H](C)O)C(C)C)C(C)C)C(=O)N[C@@H](CC(C)C)C(=O)NC(C)(C)C(=O)N[C@H](C(=O)N[C@@H](CCC(=O)O)C(N)=O)[C@@H](C)O) [Peptide 422]	27.6 pM	123 pM
H[Aib]QGTFTSDVSK[αMeF]LDRK([AEEA-AEEA-γGlu-C18 diacid])RAQDFVRWLL[Aib]TE-OH (N-terminus assumed; SMILES CC(C)C[C@H](NC(=O)[C@H](Cc1c[nH]c2ccccc12)NC(=O)[C@H](CCCNC(=N)N)NC(=O)[C@@H](NC(=O)[C@H](Cc1ccccc1)NC(=O)[C@H](CC(=O)O)NC(=O)[C@H](CCC(N)=O)NC(=O)[C@H](C)NC(=O)[C@H](CCCNC(=N)N)NC(=O)[C@H](CCCCNC(=O)COCCOCCNC(=O)COCCOCCNC(=O)CC[C@H](NC(=O)CCCCCCCCCCCCCCCCC(=O)O)C(=O)O)NC(=O)[C@H](CCCNC(=N)N)NC(=O)[C@H](CC(=O)O)NC(=O)[C@H](CC(C)C)NC(=O)[C@](C)(Cc1ccccc1)NC(=O)[C@H](CCCCN)NC(=O)[C@H](CO)NC(=O)[C@@H](NC(=O)[C@H](CC(=O)O)NC(=O)[C@H](CO)NC(=O)[C@@H](NC(=O)[C@H](Cc1ccccc1)NC(=O)[C@@H](NC(=O)CNC(=O)[C@H](CCC(N)=O)NC(=O)C(C)(C)NC(=O)[C@@H](N)Cc1c[nH]cn1)[C@@H](C)O)[C@@H](C)O)C(C)C)C(C)C)C(=O)N[C@@H](CC(C)C)C(=O)NC(C)(C)C(=O)N[C@H](C(=O)N[C@@H](CCC(=O)O)C(=O)O)[C@@H](C)O) [Peptide 421]	87.3 pM	180 pM
H[Aib]QGTFTSDVSK[αMeF]LDKK([AEEA-AEEA-γGlu-C18 diacid])RAQDFVRWLK[Aib]TE-OH (N-terminus assumed; SMILES CC(C)C[C@H](NC(=O)[C@H](Cc1c[nH]c2ccccc12)NC(=O)[C@H](CCCNC(=N)N)NC(=O)[C@@H](NC(=O)[C@H](Cc1ccccc1)NC(=O)[C@H](CC(=O)O)NC(=O)[C@H](CCC(N)=O)NC(=O)[C@H](C)NC(=O)[C@H](CCCNC(=N)N)NC(=O)[C@H](CCCCNC(=O)COCCOCCNC(=O)COCCOCCNC(=O)CC[C@H](NC(=O)CCCCCCCCCCCCCCCCC(=O)O)C(=O)O)NC(=O)[C@H](CCCCN)NC(=O)[C@H](CC(=O)O)NC(=O)[C@H](CC(C)C)NC(=O)[C@](C)(Cc1ccccc1)NC(=O)[C@H](CCCCN)NC(=O)[C@H](CO)NC(=O)[C@@H](NC(=O)[C@H](CC(=O)O)NC(=O)[C@H](CO)NC(=O)[C@@H](NC(=O)[C@H](Cc1ccccc1)NC(=O)[C@@H](NC(=O)CNC(=O)[C@H](CCC(N)=O)NC(=O)C(C)(C)NC(=O)[C@@H](N)Cc1c[nH]cn1)[C@@H](C)O)[C@@H](C)O)C(C)C)C(C)C)C(=O)N[C@@H](CCCCN)C(=O)NC(C)(C)C(=O)N[C@H](C(=O)N[C@@H](CCC(=O)O)C(=O)O)[C@@H](C)O) [Peptide 423]	26.1 pM	2220 pM
H[Aib]QGTFTSDVSK[αMeF]LDKK([AEEA-AEEA-γGlu-C18 diacid])RAQDFVRWLL[Aib]E-NH2 (N-terminus assumed; SMILES CC(C)C[C@H](NC(=O)[C@H](Cc1c[nH]c2ccccc12)NC(=O)[C@H](CCCNC(=N)N)NC(=O)[C@@H](NC(=O)[C@H](Cc1ccccc1)NC(=O)[C@H](CC(=O)O)NC(=O)[C@H](CCC(N)=O)NC(=O)[C@H](C)NC(=O)[C@H](CCCNC(=N)N)NC(=O)[C@H](CCCCNC(=O)COCCOCCNC(=O)COCCOCCNC(=O)CC[C@H](NC(=O)CCCCCCCCCCCCCCCCC(=O)O)C(=O)O)NC(=O)[C@H](CCCCN)NC(=O)[C@H](CC(=O)O)NC(=O)[C@H](CC(C)C)NC(=O)[C@](C)(Cc1ccccc1)NC(=O)[C@H](CCCCN)NC(=O)[C@H](CO)NC(=O)[C@@H](NC(=O)[C@H](CC(=O)O)NC(=O)[C@H](CO)NC(=O)[C@@H](NC(=O)[C@H](Cc1ccccc1)NC(=O)[C@@H](NC(=O)CNC(=O)[C@H](CCC(N)=O)NC(=O)C(C)(C)NC(=O)[C@@H](N)Cc1c[nH]cn1)[C@@H](C)O)[C@@H](C)O)C(C)C)C(C)C)C(=O)N[C@@H](CC(C)C)C(=O)NC(C)(C)C(=O)N[C@@H](CCC(=O)O)C(N)=O) [Peptide 420]	23.1 pM	36.9 pM
H[Aib]QGTFTSDVSK[αMeF]LDKK([AEEA-AEEA-γGlu-C18 diacid])RAQDFVRWLL[Aib]TK-OH (N-terminus assumed; SMILES CC(C)C[C@H](NC(=O)[C@H](Cc1c[nH]c2ccccc12)NC(=O)[C@H](CCCNC(=N)N)NC(=O)[C@@H](NC(=O)[C@H](Cc1ccccc1)NC(=O)[C@H](CC(=O)O)NC(=O)[C@H](CCC(N)=O)NC(=O)[C@H](C)NC(=O)[C@H](CCCNC(=N)N)NC(=O)[C@H](CCCCNC(=O)COCCOCCNC(=O)COCCOCCNC(=O)CC[C@H](NC(=O)CCCCCCCCCCCCCCCCC(=O)O)C(=O)O)NC(=O)[C@H](CCCCN)NC(=O)[C@H](CC(=O)O)NC(=O)[C@H](CC(C)C)NC(=O)[C@](C)(Cc1ccccc1)NC(=O)[C@H](CCCCN)NC(=O)[C@H](CO)NC(=O)[C@@H](NC(=O)[C@H](CC(=O)O)NC(=O)[C@H](CO)NC(=O)[C@@H](NC(=O)[C@H](Cc1ccccc1)NC(=O)[C@@H](NC(=O)CNC(=O)[C@H](CCC(N)=O)NC(=O)C(C)(C)NC(=O)[C@@H](N)Cc1c[nH]cn1)[C@@H](C)O)[C@@H](C)O)C(C)C)C(C)C)C(=O)N[C@@H](CC(C)C)C(=O)NC(C)(C)C(=O)N[C@H](C(=O)N[C@@H](CCCCN)C(=O)O)[C@@H](C)O) [Peptide 424]	15.5 pM	129 pM
H[Aib]QGTFTSDVSK[αMeF]LDTK([AEEA-AEEA-γGlu-C18 diacid])RAQDFVRWLE[Aib]E-OH (N-terminus assumed; SMILES CC(C)C[C@H](NC(=O)[C@H](Cc1c[nH]c2ccccc12)NC(=O)[C@H](CCCNC(=N)N)NC(=O)[C@@H](NC(=O)[C@H](Cc1ccccc1)NC(=O)[C@H](CC(=O)O)NC(=O)[C@H](CCC(N)=O)NC(=O)[C@H](C)NC(=O)[C@H](CCCNC(=N)N)NC(=O)[C@H](CCCCNC(=O)COCCOCCNC(=O)COCCOCCNC(=O)CC[C@H](NC(=O)CCCCCCCCCCCCCCCCC(=O)O)C(=O)O)NC(=O)[C@@H](NC(=O)[C@H](CC(=O)O)NC(=O)[C@H](CC(C)C)NC(=O)[C@](C)(Cc1ccccc1)NC(=O)[C@H](CCCCN)NC(=O)[C@H](CO)NC(=O)[C@@H](NC(=O)[C@H](CC(=O)O)NC(=O)[C@H](CO)NC(=O)[C@@H](NC(=O)[C@H](Cc1ccccc1)NC(=O)[C@@H](NC(=O)CNC(=O)[C@H](CCC(N)=O)NC(=O)C(C)(C)NC(=O)[C@@H](N)Cc1c[nH]cn1)[C@@H](C)O)[C@@H](C)O)C(C)C)[C@@H](C)O)C(C)C)C(=O)N[C@@H](CCC(=O)O)C(=O)NC(C)(C)C(=O)N[C@@H](CCC(=O)O)C(=O)O) [Peptide 419]	96.9 pM	264 pM
